The record followed here is PMC10495444.

Experiment [1] addresses mXkr4ΔC Q332E (aXkr4), constitutively active mutant, fused with monomeric EGFP (mouse). Kind of experiment: SEC + native gel or EMSA; whole lysate of transfected HEK293T cells in LMNG/GDN 1:1 loaded on Superdex Increase 200 10/300 GL (10 mM HEPES-NaOH pH 7.5, 150 mM NaCl, 0.01% LMNG/GDN, 10% glycerol, 1 mM CaCl2 or 0.5 mM EGTA); dimer fraction collected by EGFP fluorescence; then BN-PAGE with anti-V5 blot after 1 h at 4, 16, 25 or 37 °C. On the technique in general: A gel shift assay detects complexes by their altered migration in electrophoresis.

Experiment [2] addresses mouse Xkr4 C-terminal cleaved form (mXkr4ΔC) fused with monomeric EGFP (mouse). Described as above.

“mXkr4ΔC Q332E (aXkr4), constitutively active mutant, fused with monomeric EGFP (domain or fragment)”: in experiment [1], the stoichiometry N is 2.

Take “mouse Xkr4 C-terminal cleaved form (mXkr4ΔC) fused with monomeric EGFP (domain or fragment)”: the stoichiometry N in experiment [2] was determined as 2.

The term stoichiometry N denotes a count of units in the complex or per binding partner.
